In US20020142359A1 (AstraZeneca / MedImmune, published 2002):
Changes are numbered by the printed parent chain. Numbers in names are those of the source. Each block holds one molecule with its values, some of them ahead of it.

Columns and labels:
[1] = target: CEA on LS174T colo-rectal tumour cells (UniProt P06731); test: cell-based or functional assay
[2] = target: T1, CEA (Carcinoembryonic antigen), purified antigen (UniProt P06731 35-685, limits assumed); test: CEA ELISA (50 ng CEA per well) on NS0 culture supernatants, detected with HRPO anti-human kappa
T1 construct: Purified CEA, 50 ng per well in the CEA ELISA; also called native CEA; untreated CEA
T1 sequence (looked up): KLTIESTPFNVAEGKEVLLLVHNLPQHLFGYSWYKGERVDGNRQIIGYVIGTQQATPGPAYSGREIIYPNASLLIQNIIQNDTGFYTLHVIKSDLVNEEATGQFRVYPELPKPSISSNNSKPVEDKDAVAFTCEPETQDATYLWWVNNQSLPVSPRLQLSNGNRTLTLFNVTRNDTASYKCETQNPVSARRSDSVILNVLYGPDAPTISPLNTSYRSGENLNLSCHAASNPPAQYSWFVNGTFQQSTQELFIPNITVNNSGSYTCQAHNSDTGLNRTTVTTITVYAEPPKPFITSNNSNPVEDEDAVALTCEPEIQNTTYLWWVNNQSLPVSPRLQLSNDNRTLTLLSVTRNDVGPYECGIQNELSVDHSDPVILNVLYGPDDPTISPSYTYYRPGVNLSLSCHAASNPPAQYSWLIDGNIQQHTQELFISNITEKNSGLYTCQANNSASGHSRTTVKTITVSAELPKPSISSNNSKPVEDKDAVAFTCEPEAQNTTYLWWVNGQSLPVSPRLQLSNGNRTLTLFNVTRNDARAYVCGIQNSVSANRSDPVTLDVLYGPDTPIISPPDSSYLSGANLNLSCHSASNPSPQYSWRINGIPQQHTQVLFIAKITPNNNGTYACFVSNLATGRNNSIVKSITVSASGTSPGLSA
Protocol: (§1) For the CEA ELISA each well of a 96 well immunoplate (NUNC MAXISORB™) was coated with 50 ng CEA in 50 mM carbonate/bicarbonate coating buffer pH9.6 (buffer capsules—Sigma C3041) and incubated at 4° C. overnight. The plate was washed three times with PBS+0.05% Tween 20 and then blocked 150 μl per well of 1% BSA in PBS +0.05% Tween 20 for 1 hour at room temperature. The plate was washed as previously described, 100 μl of test sample added per well and incubated at room temperature for 2 hours. Again the plate was washed three times with PBS+0.05% Tween 20, 100 μl per well of a 1/500 dilution of HRPO-labelled goat anti-human kappa antibody (Sigma A 7164) was added, in 1% BSA in PBS-Tween 20 and incubated at room temperature on a rocking platform for at least 1 hour. The plate was washed as before and then once more with PBS. To detect binding add 100 μl per well developing solution (one capsule of phosphate-citrate buffer—Sigma P4922—dissolved in 100 mls H₂O to which is added one 30 mg tablet o-phenylenediamine dihydrochloride—Sigma P8412) and incubated for up to 15 minutes. The reaction was stopped by adding 75 μl 2M H₂SO₄, and absorbance read at 490 nm.

[3] = target: T1, CEA (Carcinoembryonic antigen), …; test: CEA ELISA on NS0 culture supernatants (Example 41)
Protocol: as §1
(§2) As before, the human F(ab′)₂ antibody fragment was then purified from the culture supernatant as described in Example 102.

[4] = target: T1, CEA (Carcinoembryonic antigen), …; test: CEA ELISA on NS0 culture supernatants (Example 39)
Protocol: as §1, §2

[5] = target: T1, CEA (Carcinoembryonic antigen), …; test: CEA ELISA on NS0 culture supernatants (Example 14)
Protocol: as §1

[6] = target: T1, CEA (Carcinoembryonic antigen), …; test: CEA ELISA on NS0 culture supernatants (Example 43)
Protocol: as §1, §2

[7] = target: T1, CEA (Carcinoembryonic antigen), …; test: CEA ELISA on NS0 culture supernatants (Example 45)
Protocol: as §1, §2

[8] = target: T1, CEA (Carcinoembryonic antigen), …; test: CEA ELISA on NS0 culture supernatants (Example 42)
Protocol: as §1, §2

[9] = target: T1, CEA (Carcinoembryonic antigen), …; test: CEA ELISA on NS0 culture supernatants (Example 47)
Protocol: as §1, §2

[10] = target: T1, CEA (Carcinoembryonic antigen), …; test: CEA ELISA on media from NS0 clones, detected with anti-human kappa peroxidase conjugate
Description: Media from wells containing single viable clones was taken for testing and replaced with fresh media (containing G418).

[11] = target: T1, CEA (Carcinoembryonic antigen), …; test: EIA of hybridoma supernatants against native CEA; line 806.077 was cloned from one of the positive wells

- [3H] thymidine incorporation by T cells on anti-CD3 coated wells (T cells + LS174T/fusion protein) [1]: 41800 cpm
- [3H] thymidine uptake, fold over no co-stimulation [1]: > 11 fold
- [3H] thymidine uptake, fold over tumour cells alone [1]: > 3 fold
Molecule: human B7.1-murine A5B7 F(ab')2 fusion protein (AB7)

- binding result [2]: binds
B1: humanised 806.077 HuVH1/HuVK1 HuIgG2 F(ab')2 (Initial humanised antibody) (antibody, V domains shown)
VH: EVQLQQSGPGLVRPSQTLSLTCTASGFNIKDNYMHWVRQPPGRGLEWIGWIDPENGDTEYAPKFRGRVTMLADTSKNQFSLRLSSVTAADTAVYYCHVLIYAGYLAMDYWGQGTLVTVSS
VL: DIQMTQSPSSLSASVGDRVTITCSASSSVTYMHWYQQKPGKAPKLLIYSTSNLASGVPSRFSGSGSGTDYTFTISSLQPEDIATYYCQQRSTYPLTFGQGTKLEIKR
notes: F(ab')2 fragment secreted by NS0 cells and tested as culture supernatant

- binding result [3]: binds
B2: humanised 806.077 HuVH1/HuVK1 HuIgG3 F(ab')2 (antibody, V domains shown)
VH: B1 VH
VL: B1 VL
notes: F(ab')2 fragment from NS0 supernatant; also called HuVH1-HuIgG3 + HuVK1-HuCK

- binding result [4]: binds
B3: humanised 806.077 HuVH1/HuVK1 HuIgG1 F(ab')2 (antibody, V domains shown)
VH: B1 VH
VL: B1 VL
notes: F(ab')2 fragment from NS0 supernatant; also called HuVH1-HuIgG1 + HuVK1-HuCK

- binding result [5]: binds
B4: humanised 806.077 HuVH1/HuVK4 HuIgG2 F(ab')2 (antibody, V domains shown)
VH: B1 VH
VL: B1 VL with L46W
notes: F(ab')2 fragment from NS0 supernatant

- binding result [6]: binds
B5: humanised 806.077 HuVH1/HuVK3 HuIgG2 F(ab')2 (antibody, V domains shown)
VH: B1 VH
VL: B1 VL with D1Q, Q3V, M4L
notes: as for B4

- binding result [7]: binds
B6: humanised 806.077 HuVH1/HuVK4 HuIgG1 F(ab')2 (antibody, V domains shown)
VH: B1 VH
VL: B1 VL with L46W
notes: F(ab')2 fragment from NS0 supernatant; also called HuVH1-HuIgG1 + HuVK4-HuCK

- binding result [8]: binds
B7: humanised 806.077 HuVH1/HuVK3 HuIgG1 F(ab')2 (antibody, V domains shown)
VH: B1 VH
VL: B1 VL with D1Q, Q3V, M4L
notes: F(ab')2 fragment from NS0 supernatant; also called HuVH1-HuIgG1 + HuVK3-HuCK

- binding result [9]: binds
B8: humanised 806.077 HuVH1/HuVK4 HuIgG3 F(ab')2 (antibody, V domains shown)
VH: B1 VH
VL: B1 VL with L46W
notes: F(ab')2 fragment from NS0 supernatant; also called HuVH1-HuIgG3 + HuVK4-HuCK

- binding result [10]: binds
B9: pro-[A248S,G251T,D253K]HCPB-linker-F(ab')2(humanised 806.077) (other)
heavy: HHGGEHFEGEKVFRVNVEDENHINIIRELASTTQIDFWKPDSVTQIKPHSTVDFRVKAEDTVTVENVLKQNELQYKVLISNLRNVVEAQFDSRVRATGHSYEKYNKWETIEAWTQQVATENPALISRSVIGTTFEGRAIYLLKVGKAGQNKPAIFMDCGFHAREWISPAFCQWFVREAVRTYGREIQVTELLDKLDFYVLPVLNIDGYIYTWTKSRFWRKTRSTHTGSSCIGTDPNRNFDAGWCEIGASRNPCDETYCGPAAESEKETKALADFIRNKLSSIKAYLTIHSYSQMMIYPYSYAYKLGENNAELNALAKATVKELASLHGTKYTYGPGATTIYPSAGTSKDWAYDQGIRYSFTFELRDTGRYGFLLPESQIRATCEETFLAIKYVASYVLEHLYGGGSGGGSGGGSEVQLQQSGPGLVRPSQTLSLTCTASGFNIKDNYMHWVRQPPGRGLEWIGWIDPENGDTEYAPKFRGRVTMLADTSKNQFSLRLSSVTAADTAVYYCHVLIYAGYLAMDYWGQGTLVTVSSASTKGPSVFPLAPCSRSTSGGTAALGCLVKDYFPEPVTVSWNSGALTSGVHTFPAVLQSSGLYSLSSVVTVPSSSLGTQTYTCNVNHKPSNTKVDKRVELKTPLGDTTHTCPRCPEPKSCDTPPPCPRCPEPKSCDTPPPCPRCPEPKSCDTPPPCPRCPAPELLGG
light: DIQMTQSPSSLSASVGDRVTITCSASSSVTYMHWYQQKPGKAPKLWIYSTSNLASGVPSRFSGSGSGTDYTFTISSLQPEDIATYYCQQRSTYPLTFGQGTKLEIKRTVAAPSVFIFPPSDEQLKSGTASVVCLLNNFYPREAKVQWKVDNALQSGNSQESVTEQDSKDSTYSLSSTLTLSKADYEKHKVYACEVTHQGLSSPVTKSFNRGEC
notes: Antibody-enzyme fusion secreted by NS0 cells

- binding result [11]: binds
B10: 806.077 antibody (antibody, V domains shown)
VH: EVQLQQSGAELVRSGASVKLSCTASGFNIKDNYMHWVKQRPEQGLEWIAWIDPENGDTEYAPKFRGKATLTADSSSNTAYLHLSSLTSEDTAVYYCHVLIYAGYLAMDYWGQGTSVAVSS
VL: DIELTQSPAIMSASPGEKVTITCSASSSVTYMHWFQQKPGTSPKLWIYSTSNLASGVPARFSGSGSGTSYSLTISRMEAEDAATYYCQQRSTYPLTFGAGTKLELKR
notes: The cDNA primers hybridise to murine IgG1 CH1 and murine kappa constant regions
